We go through two molecules from patent publication US20210340272A1 (ANWITA BIOSCIENCES, published 2021).

In general, EC50 (read off the curve) refers to the midpoint of the concentration-response curve. Read a low EC50 (read off the curve) as greater potency.

Assay [1] deals with T1, cell surface mesothelin on human cancer cell lines NCI-H226, OVCAR3, NCI-N87 and AsPC-1 (human, UniProt Q13421 296-598).
T1 construct: whole, on cells
As to the kind of experiment: flow cytometry on AsPC-1 cells; Alexa Fluor 488 anti-human IgG secondary antibody. As for the experimental part: (§1) After washing, cells were incubated with Alexa Fluor 488 conjugated secondary antibody (anti-human IgG, Life Technologies) for 20 minutes at 4C. Cells were washed and then fluorescence intensity of the cells was quantified by flow cytometry.

Assay [2] deals with T1, cell surface mesothelin on human cancer …. As to the kind of experiment: flow cytometry on NCI-N87 cells; Alexa Fluor 488 anti-human IgG secondary antibody. The procedure:
as §1
A general note: A flow cytometer gives signals particle by particle.

Assay [3] has the same target. As to the kind of experiment: flow cytometry on NCI-H226 cells; Alexa Fluor 488 anti-human IgG secondary antibody. As for the experimental part:
as §1

T1 sequence (Q13421 other isoform, or with tags, fused parts or gaps limits assumed): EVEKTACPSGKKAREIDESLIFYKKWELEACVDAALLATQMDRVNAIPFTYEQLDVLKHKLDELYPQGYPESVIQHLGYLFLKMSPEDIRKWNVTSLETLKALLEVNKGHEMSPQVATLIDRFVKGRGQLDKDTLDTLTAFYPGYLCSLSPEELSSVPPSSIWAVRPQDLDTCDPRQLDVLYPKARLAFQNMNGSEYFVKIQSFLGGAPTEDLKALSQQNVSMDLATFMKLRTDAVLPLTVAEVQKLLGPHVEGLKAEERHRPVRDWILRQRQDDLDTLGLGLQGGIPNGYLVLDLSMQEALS

B1: R3C7 (original llama VHH, Anti-MSLN-6) as human IgG1 Fc fusion (Fc fusion)
chain: QVQLVESGGGLVEAGDSLRLSCVVSGRTLESYVMAWFRQAPGKEREAVASINWSSGRLIYADFVKGRFTISRDYEKNTIYLSMNNLKPEDTAVYYCAAGRYWGQGTQVTVSS
notes: also called R3-E08(C7); not shown: human IgG1 Fc (hIgG1 Fc)
As for B1, the entries for the “EC50 (read off the curve)” value in assay [1], in assay [2] and in assay [3] were approximately 6 ng/mL, approximately 4 ng/mL and approximately 10 ng/mL, respectively.

B2: R2G12 (original llama VHH, Anti-MSLN-9) as human IgG1 Fc fusion (Fc fusion)
chain: QVQLVESGGGLVQAGGSLRLSCAASGITFPVNAYGWYRQAPGKQRDLVAIISAGGTTNYADSVKGRFAISKDNVNNTVYLQMNSLTSEDTGVYYCYLQRRIGMLRDYWGQGTQVTVSS
notes: also called R2-G06(G12); not shown: human IgG1 Fc (hIgG1 Fc)
As to B2, the entries for the “EC50 (read off the curve)” value in assay [1], in assay [2] and in assay [3] were approximately 7 ng/mL, approximately 5 ng/mL and approximately 10 ng/mL, respectively.
